Test results from patent publication US12275778 (dated 2025).
Numbering of substitutions follows the chain as printed.

Biological target: cardiac troponin T (recombinant human) (human)
Assay: SPR, 37C

B1: Fab combination 21 (antibody, V domains shown)
VH: EVQLQQSGPELVKPGASVKMSCKASGYTFTDYYMKWVKQSHGKSLEWIGDINPNNGETWYNQKFKDKATLTVDKSSSTAYMQLNSLTSEDSAVYYCATRYFDYWGQGTTLTVSS
VL: DIVLTQSPASLAVSLGQRATISCKASQSVDYDGTSYMNWFQQKAGQPPKRLIYAASNLESGIPARFSGRGSGTDFALNIHPVEEEDAATYYCQQSNEDPYTFGGGTKLEIKR
B1 was tested. Which Kd did it give?
The Kd was 1600 pM.

B2: Fab combination 12 (antibody, V domains shown)
VH: B1 VH with Y33I, Y100V, Y103F
VL: B1 VL
Which Kd does the source give for B2 here?
The Kd was 320 pM.

B3: Fab combination 23 (antibody, V domains shown)
VH: B1 VH with Y103F
VL: B1 VL
For B3, which Kd is on record?
The Kd was 1200 pM.

B4: Fab combination 13 (antibody, V domains shown)
VH: B1 VH with Y33I, Y103F
VL: B1 VL
B4 was tested. Which Kd did it give?
The Kd was 620 pM.

B5: Fab combination 20 (antibody, V domains shown)
VH: B1 VH with W59F, Y103F
VL: B1 VL
B5 was tested. Which Kd did it give?
The Kd was 1100 pM.

B6: Fab combination 17 (antibody, V domains shown)
VH: B1 VH with Y100V
VL: B1 VL
With B6 as the binder, how does the Kd read?
The Kd was 540 pM.

B7: Fab combination 11 (antibody, V domains shown)
VH: B1 VH with Y33I
VL: B1 VL
Which Kd does the source give for B7 here?
The Kd was 1000 pM.

B8: Fab combination 22 (antibody, V domains shown)
VH: B1 VH with Y100V, Y103F
VL: B1 VL
How did the Kd turn out when B8 was run?
The Kd was 0.0038 pM.

B9: Fab combination 19 (antibody, V domains shown)
VH: B1 VH with W59F, Y100V, Y103F
VL: B1 VL
How did the Kd turn out when B9 was run?
Its Kd is 460 pM.

B10: Fab combination 8 (antibody, V domains shown)
VH: B1 VH with Y33F, W59F, Y103F
VL: B1 VL
Which Kd does the source give for B10 here?
The Kd was 200 pM.

B11: Fab combination 1 (antibody, V domains shown)
VH: B1 VH with Y33F, W59F, Y100V
VL: B1 VL
With B11 as the binder, how does the Kd read?
The Kd was 620 pM.

B12: Fab combination 15 (antibody, V domains shown)
VH: B1 VH with Y33I, W59F, Y100V, Y103F
VL: B1 VL
How did the Kd turn out when B12 was run?
Its Kd is 1100 pM.

B13: Fab combination 3 (antibody, V domains shown)
VH: B1 VH with Y33F
VL: B1 VL
For B13, which Kd is on record?
The Kd was 370 pM.

B14: Fab combination 4 (antibody, V domains shown)
VH: B1 VH with Y33F, Y100V, Y103F
VL: B1 VL
B14 was tested. Which Kd did it give?
The Kd was 2.7 pM.

B15: Fab combination 2 (antibody, V domains shown)
VH: B1 VH with Y33F, Y100V
VL: B1 VL
Which Kd does the source give for B15 here?
Its Kd is 460 pM.

B16: Fab combination 18 (antibody, V domains shown)
VH: B1 VH with W59F
VL: B1 VL
Which Kd does the source give for B16 here?
Its Kd is 1600 pM.

B17: Fab combination 9 (antibody, V domains shown)
VH: B1 VH with Y33I, W59F, Y100V
VL: B1 VL
How did the Kd turn out when B17 was run?
Its Kd is 1200 pM.

B18: Fab combination 5 (antibody, V domains shown)
VH: B1 VH with Y33F, Y103F
VL: B1 VL
With B18 as the binder, how does the Kd read?
Its Kd is 230 pM.

B19: Fab combination 16 (antibody, V domains shown)
VH: B1 VH with Y33I, W59F, Y103F
VL: B1 VL
With B19 as the binder, how does the Kd read?
The Kd was 3400 pM.

B20: parental Fab (TnT M-7) (antibody, V domains shown)
VH: B1 VH with W59F, Y100V
VL: B1 VL
B20 was tested. Which Kd did it give?
Its Kd is 580 pM.

B21: Fab combination 7 (antibody, V domains shown)
VH: B1 VH with Y33F, W59F, Y100V, Y103F
VL: B1 VL
For B21, which Kd is on record?
The Kd was 450 pM.
